Laboratory results: patent US20220056125A1 (CEPHALON, published 2022)
Values joined by “and” are separate entries in the source; they are usually repeats but may differ in a detail not shown here. Identical values can stand only once.

T1: human PAR-2 (human, UniProt P55085 26-397)
T1 sequence: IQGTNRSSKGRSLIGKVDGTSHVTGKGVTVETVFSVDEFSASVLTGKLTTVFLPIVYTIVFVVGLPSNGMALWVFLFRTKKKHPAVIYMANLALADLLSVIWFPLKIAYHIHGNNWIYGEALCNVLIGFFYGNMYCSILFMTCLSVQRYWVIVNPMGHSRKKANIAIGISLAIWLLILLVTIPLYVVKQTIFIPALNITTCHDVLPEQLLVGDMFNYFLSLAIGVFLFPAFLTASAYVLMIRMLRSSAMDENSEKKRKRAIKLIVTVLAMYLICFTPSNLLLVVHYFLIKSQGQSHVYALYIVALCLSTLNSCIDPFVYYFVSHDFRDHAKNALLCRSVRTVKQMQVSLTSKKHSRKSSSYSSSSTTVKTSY

T2: human PAR-1 (human, UniProt P25116 22-425)
T2 construct: also called huPAR-1
T2 sequence: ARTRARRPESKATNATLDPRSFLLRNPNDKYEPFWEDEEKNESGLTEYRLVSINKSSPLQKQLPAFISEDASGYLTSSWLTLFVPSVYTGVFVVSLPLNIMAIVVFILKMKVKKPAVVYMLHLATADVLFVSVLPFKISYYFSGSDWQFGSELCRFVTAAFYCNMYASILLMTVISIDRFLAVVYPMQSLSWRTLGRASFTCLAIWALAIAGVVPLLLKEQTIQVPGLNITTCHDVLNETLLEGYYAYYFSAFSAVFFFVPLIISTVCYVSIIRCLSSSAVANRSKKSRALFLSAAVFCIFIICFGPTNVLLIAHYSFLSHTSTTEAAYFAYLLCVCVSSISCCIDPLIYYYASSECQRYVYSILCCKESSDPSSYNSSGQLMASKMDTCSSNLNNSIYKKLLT


Legend:
human PAR-2 [1] = target: T1, human PAR-2; test: cell-based or functional assay
human PAR-1 = target: T2, human PAR-1; test: flow cytometry, transfected Expi293F cells
human PAR-2 [2] = target: T1, human PAR-2; test: cell-based or functional assay; remark: listed apart in the source
human PAR-2 [3] = target: T1, human PAR-2; test: cell-based or functional assay; remark: listed apart in the source
human PAR-2 [4] = target: T1, human PAR-2; test: cell-based or functional assay; remark: listed apart in the source
human PAR-2 [5] = target: T1, human PAR-2; test: cell-based or functional assay; remark: listed apart in the source

IC50, PAR-2 calcium flux assay (trypsin EC80) (human PAR-2 [1]) [nM] | binding result (human PAR-1) | IC50, PAR-2 β-arrestin cell assay (human PAR-2 [2]) [nM] | PAR-2 calcium flux cell assay IC50 (human PAR-2 [5]) [nM] | PAR-2 β-arrestin cell assay IC50, 1 µM SLIGKV (human PAR-2 [5]) [nM] | Binder | further results
50.5 | no binding (tested: 10 µg/mL) | 8.4 |  |  | Ab1 (antibody, human IgG4, V domains shown, also called Anti-PAR-2 antibody # 1) VH: EVQLVEFGGGLVQPKGSLKLSCAASGFTFNTNAMHWVRQAPGKGLEWVARIGSKSSYFATYYADSVKDRFTISRDDSRSMFYLQMNNLKTEDTAMYYCVREDYYGSSFDLWGQGTTLTVSS VL: QIVLSQSPAILSASPGEKVTMTCRASSSLPYIHWYQQKPGSSPRPWIYATSNLASGVPARFSGRGSGTSYSLTISRMEAEDAATYYCQQWSSTPPTFGGGSKLEIK | 
169 | no binding (tested: 10 µg/mL) | 16.5 |  |  | Ab77 (antibody, human IgG4, V domains shown, also called Anti-PAR-2 antibody # 77) VH: EVQLVGSGGGLVQPKGSLKLSCAASGFTFNTYAMHWVRQAPGKGLEWVARIGSKSSYYATYYADSVKDRFTISRDDSQSMLYLQMNNLKTEDTAMYYCVREDYYGSSYDYWGQGTTLTVSS VL: DIVMTQSHKFMSISVGDRVSITCKASQDVGTAVAWHQQKAGQSPKLLIYWASARHTGVPDRFTGSGSGTDFTLTISNVQSEDLTDFFCQQYSNYPFTFGSGTKLEIK | 
29 | no binding (tested: 10 µg/mL) | 4.9 |  |  | Ab39 (antibody, human IgG4, V domains shown, also called Anti-PAR-2 antibody # 39) VH: EVQLVESGGGLVQPKGSLKLSCAASGFTFNTYAMHWVRQAPGKGLEWVARIGSKSSYYATYYADSVKDRFTISRADSQSMLYLQMNNLKTEDTAIYYCVREDYYGCSFDYWGQGTTLTVSS VL: QIVLSQSPVILSTSPGEKVTMTCRANSRVIYVHWYQQKPGSSPKPWIFATSNLASGVPSRFSGSGSGTSYSLTISRVETEDAATYYCQHCGNNPPTFGSGTKLEIK | 
 |  |  |  |  | P24E1103 (antibody, human IgG4 S228P, kappa, V domains shown) VH: QVQLVQSGAEVKKPGSSVKVSCKASGFSLSSYAISWVRQAPGQGLEWMGVIWGNQNVYYAQKFQGRVTITADESTSTAYMELSSLRSEDTAVYYCARWKGYKDYPFDYWGQGTLVTVSS VL: EIVLTQSPATLSLSPGERATLSCRASQNVYKWLDWYQQKPGQAPRLLIYNANNRATGIPARFSGSGSGRDFTLTISSLEPEDFAVYYCQQHHSGWTFGGGTKVEIKR | Calcium flux IC50 (human PAR-2 [3]): 12.7 nM; IL-6 release in A549 cells IC50 (human PAR-2 [3]): 7.18 nM; IL-8 release in A549 cells IC50 (human PAR-2 [3]): 5.17 nM; PAR-2 β-arrestin cell based assay IC50, 2 µM SLIGKV (human PAR-2 [4]): 1.54 nM
 |  |  | 8.3 | 2.3 | 309-12e (antibody, human IgG4 S228P, kappa, V domains shown) VH: QVQLQQWGAGLLKPSETLSLTCAVYGFSLNSYGVIWIRQPPGKGLEWIGVIWGNGNTYYNPSLKSRVTISVDTSKNQFSLKLSSVTAADTAVYYCARWRGYKDYPFDYWGQGTLVTVSS VL: EIVLTQSPATLSLSPGERATLSCKASQNIYKYLDWYQQKPGQAPRLLIYNTNSLHTGIPARFSGSGSGRDFTLTISSLEPEDFAVYYCLQHNSGWTFGGGTKVEIKR | 
 |  |  | 7.6 | 5.8 | 309-4e (antibody, human IgG4 S228P, kappa, V domains shown) VH: QVQLVQSGAEVKKPGSSVKVSCKASGFSLNSYGVIWVRQAPGQGLEWMGVIWGNGNTYYNQKFQGRVTITADESTSTAYMELSSLRSEDTAVYYCARWRGYKDYPFDYWGQGTLVTVSS VL: EIVLTQSPATLSLSPGERATLSCKASQNIYKYLDWYQQKPGQAPRLLIYNTNSLHTGIPARFSGSGSGRDFTLTISSLEPEDFAVYYCLQHNSGWTFGGGTKVEIKR | PAR-2 β-arrestin cell based assay IC50, 2 µM SLIGKV (human PAR-2 [4]): 2.1 nM and 5.9 nM
 |  |  | 22.8 | 6.1 | 309-11e (antibody, human IgG4 S228P, kappa, V domains shown) VH: QVQLQESGPGLVKPSETLSLTCTVSGFSLNSYGVIWIRQPPGKGLEWIGVIWGNGNTYYNPSLKSRVTISVDTSKNQFSLKLSSVTAADTAVYYCARWRGYKDYPFDYWGQGTLVTVSS VL: EIVLTQSPATLSLSPGERATLSCKASQNIYKYLDWYQQKPGQAPRLLIYNTNSLHTGIPARFSGSGSGRDFTLTISSLEPEDFAVYYCLQHNSGWTFGGGTKVEIKR | 
 |  |  | 12.7 | 5.6 | 309-6e (antibody, human IgG4 S228P, kappa, V domains shown) VH: EVQLVESGGGLVQPGGSLRLSCAASGFSLNSYGVIWVRQAPGKGLEWVSVIWGNGNTYYNDSVKGRFTISRDNSKNTLYLQMNSLRAEDTAVYYCARWRGYKDYPFDYWGQGTLVTVSS VL: EIVLTQSPATLSLSPGERATLSCKASQNIYKYLDWYQQKPGQAPRLLIYNTNSLHTGIPARFSGSGSGRDFTLTISSLEPEDFAVYYCLQHNSGWTFGGGTKVEIKR | 
6.7 | no binding (tested: 10 µg/mL) | 1.6 | 8.6 | 4.4 | Ab309 (antibody, human IgG4, V domains shown) VH: QVQLKESGPGLVQPSQTLSLTCTVSGFSLNSYGVIWARQPPGKGLDWMGVIWGNGNTYYNSDLKSRLSISRDTSKSQVFLKMNNLQAEDTALYFCARWRGYKDYPFDYWGQGVMVTVSS VL: DIQMTQSPSFLSASVGDRVTFNCKASQNIYKYLDWYQQKLGEAPKLLIYNTNSLHTGIPSRFSGSGFGTDFTLTISSLQPEDVATYFCLQHNSGWTFGGGTKLELR | 
 |  |  |  | 40.6 | 309-6i (antibody, human IgG4 S228P, kappa, V domains shown) VH: EVQLVESGGGLVQPGGSLRLSCAASGFSLNSYGVIWVRQAPGKGLEWVSVIWGNGNTYYNDSVKGRFTISRDNSKNTLYLQMNSLRAEDTAVYYCARWRGYKDYPFDYWGQGTLVTVSS VL: DIQMTQSPSSLSASVGDRVTITCKASQNIYKYLDWYQQKPGKAPKRLIYNTNSLHTGVPSRFSGSGSGTEFTLTISSLQPEDFATYYCLQHNSGWTFGGGTKVEIKR | 
73.2 | no binding (tested: 10 µg/mL) | 10.7 |  |  | Ab20 (antibody, human IgG4, V domains shown, also called Anti-PAR-2 antibody # 20) VH: EVQLVESGGGLVQPKGSLKLSCAASGFTFNIYAMHWVRQAPGKGLEWVARIGSKSSNYATNYADSVKDRFTISRDDSQSMLCLQMNNLKTEDTAMYYCVREDYYGNSFDSWGQGTTLAVSS VL: QIVLSQSPAILSASPGEKVTMTCRTSSSVIYIHWYQQKSGSSPKPWIYATSNLASGVPTRFSGSGSGTSYSLTISRVEAEDAATYYCHHWRSNPPTFGGGTKLEIK | 
